Experimental data reported in PMC7456325.

Target: T. suis B ΔC26 (Trichuris suis BCL-2-like protein B, C-terminal truncation) (Trichuris suis)
Experiment: MST; Monolith NT.115; protein labelled with NHS RED, unlabelled synthetic peptide diluted in phosphate-buffered saline; 30 min incubation; 25 °C; 40% LED and 40% MST power; three independent experiments, single binding model

Work on SVRAPIRLCDAMFLMCDLFERKFHDR [T. suis protein A BH3 peptide] yielded a Kd greater than 50 µM.

Binder PILPEVNKTALCMRAMGEVFEDRYKT [T. suis protein B BH3 peptide] has a Kd greater than 50 µM.
